Source: US12679878B2, “CRF2 receptor agonists and their use in therapy” (SANOFI, priority 2020, dated 2026)
Starred links: 1 amine or outer side, 2 acyl side, 3 side chain; linkers in the order of their positions; H or OH if unused. Non-standard residues stand in square brackets, D forms with d. Groups on a side chain read outwards from the residue. No end group written: not given here. *: point of attachment. C16 diacid = O=C(O)CCCCCCCCCCCCCCC(=O)*; γGlu = O=C(O)[C@H](CCC(=O)[*:2])N[*:1]; Palmitoyl = CCCCCCCCCCCCCCCC(=O)*; AEEA = NCCOCCOCC(=O)O; Aib = CC(C)(N)C(=O)O

Key:
[1] = target: T1, CRF1R receptor (anti-target) (UniProt P34998 24-415, limits assumed); assay: cell-based or functional assay
T1 sequence (looked up): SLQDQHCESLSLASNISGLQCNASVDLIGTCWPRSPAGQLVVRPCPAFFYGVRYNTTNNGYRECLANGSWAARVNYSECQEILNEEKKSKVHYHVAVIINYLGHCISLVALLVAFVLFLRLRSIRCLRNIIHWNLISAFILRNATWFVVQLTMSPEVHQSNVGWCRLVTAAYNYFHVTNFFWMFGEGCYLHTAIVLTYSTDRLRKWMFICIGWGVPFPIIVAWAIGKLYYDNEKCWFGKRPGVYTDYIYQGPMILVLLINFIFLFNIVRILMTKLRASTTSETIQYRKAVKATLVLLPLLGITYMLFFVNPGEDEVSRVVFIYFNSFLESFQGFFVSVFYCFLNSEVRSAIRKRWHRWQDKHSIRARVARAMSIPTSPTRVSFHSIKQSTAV

[2] = target: human corticotropin-releasing factor 2α (CRF2α receptor) (human), Q13324; assay: cell-based or functional assay
Chain of human corticotropin-releasing factor 2α (CRF2α receptor) (human), Q13324 (Q13324 20-411): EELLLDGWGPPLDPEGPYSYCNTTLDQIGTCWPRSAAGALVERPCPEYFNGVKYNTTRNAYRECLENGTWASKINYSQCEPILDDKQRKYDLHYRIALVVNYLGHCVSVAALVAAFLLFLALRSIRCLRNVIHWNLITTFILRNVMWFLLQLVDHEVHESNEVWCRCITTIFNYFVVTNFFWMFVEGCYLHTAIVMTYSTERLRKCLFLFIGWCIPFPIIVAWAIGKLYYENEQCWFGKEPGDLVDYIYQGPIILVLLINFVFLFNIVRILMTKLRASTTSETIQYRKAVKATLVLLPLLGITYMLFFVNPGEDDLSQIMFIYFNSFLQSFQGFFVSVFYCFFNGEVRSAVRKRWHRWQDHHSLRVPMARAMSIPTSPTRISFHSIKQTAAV

| Binder | EC50 [nM] 0% HSA (cAMP, HTRF) [1] | Emax (%) (100% = Sauvagine at 100 nM) [1] | EC50 [nM], 0% HSA (cAMP, HTRF) [2] |
| --- | --- | --- | --- |
| IVLSLD[dV]PIKLK([γGlu-C16 diacid])QILLKQERQKKQREKAEKNKQILAQV-NH2 (N-terminus assumed; SMILES CC[C@H](C)[C@H](N)C(=O)N[C@H](C(=O)N[C@@H](CC(C)C)C(=O)N[C@@H](CO)C(=O)N[C@@H](CC(C)C)C(=O)N[C@@H](CC(=O)O)C(=O)N[C@@H](C(=O)N1CCC[C@H]1C(=O)N[C@H](C(=O)N[C@@H](CCCCN)C(=O)N[C@@H](CC(C)C)C(=O)N[C@@H](CCCCNC(=O)CC[C@H](NC(=O)CCCCCCCCCCCCCCC(=O)O)C(=O)O)C(=O)N[C@@H](CCC(N)=O)C(=O)N[C@H](C(=O)N[C@@H](CC(C)C)C(=O)N[C@@H](CC(C)C)C(=O)N[C@@H](CCCCN)C(=O)N[C@@H](CCC(N)=O)C(=O)N[C@@H](CCC(=O)O)C(=O)N[C@@H](CCCNC(=N)N)C(=O)N[C@@H](CCC(N)=O)C(=O)N[C@@H](CCCCN)C(=O)N[C@@H](CCCCN)C(=O)N[C@@H](CCC(N)=O)C(=O)N[C@@H](CCCNC(=N)N)C(=O)N[C@@H](CCC(=O)O)C(=O)N[C@@H](CCCCN)C(=O)N[C@@H](C)C(=O)N[C@@H](CCC(=O)O)C(=O)N[C@@H](CCCCN)C(=O)N[C@@H](CC(N)=O)C(=O)N[C@@H](CCCCN)C(=O)N[C@@H](CCC(N)=O)C(=O)N[C@H](C(=O)N[C@@H](CC(C)C)C(=O)N[C@@H](C)C(=O)N[C@@H](CCC(N)=O)C(=O)N[C@H](C(N)=O)C(C)C)[C@@H](C)CC)[C@@H](C)CC)[C@@H](C)CC)C(C)C)C(C)C) [peptide of SEQ ID NO: 191] | > 100 nM | 12.5% | 2.68 nM |
| IVLSLD[dV]PIGLK([γGlu-C16 diacid])QILLKQERQKK[Aib]REQAETNKQILAQV-NH2 (N-terminus assumed; SMILES CC[C@H](C)[C@H](N)C(=O)N[C@H](C(=O)N[C@@H](CC(C)C)C(=O)N[C@@H](CO)C(=O)N[C@@H](CC(C)C)C(=O)N[C@@H](CC(=O)O)C(=O)N[C@@H](C(=O)N1CCC[C@H]1C(=O)N[C@H](C(=O)NCC(=O)N[C@@H](CC(C)C)C(=O)N[C@@H](CCCCNC(=O)CC[C@H](NC(=O)CCCCCCCCCCCCCCC(=O)O)C(=O)O)C(=O)N[C@@H](CCC(N)=O)C(=O)N[C@H](C(=O)N[C@@H](CC(C)C)C(=O)N[C@@H](CC(C)C)C(=O)N[C@@H](CCCCN)C(=O)N[C@@H](CCC(N)=O)C(=O)N[C@@H](CCC(=O)O)C(=O)N[C@@H](CCCNC(=N)N)C(=O)N[C@@H](CCC(N)=O)C(=O)N[C@@H](CCCCN)C(=O)N[C@@H](CCCCN)C(=O)NC(C)(C)C(=O)N[C@@H](CCCNC(=N)N)C(=O)N[C@@H](CCC(=O)O)C(=O)N[C@@H](CCC(N)=O)C(=O)N[C@@H](C)C(=O)N[C@@H](CCC(=O)O)C(=O)N[C@H](C(=O)N[C@@H](CC(N)=O)C(=O)N[C@@H](CCCCN)C(=O)N[C@@H](CCC(N)=O)C(=O)N[C@H](C(=O)N[C@@H](CC(C)C)C(=O)N[C@@H](C)C(=O)N[C@@H](CCC(N)=O)C(=O)N[C@H](C(N)=O)C(C)C)[C@@H](C)CC)[C@@H](C)O)[C@@H](C)CC)[C@@H](C)CC)C(C)C)C(C)C) [peptide of SEQ ID NO: 194] | > 100 nM | 21.6% | 0.11 nM |
| IVLSLD[dV]PIKLK([AEEA-AEEA-γGlu-C16 diacid])QILLKQERQK[Aib]QREQAEKNKQILAQV-NH2 (N-terminus assumed; SMILES CC[C@H](C)[C@H](N)C(=O)N[C@H](C(=O)N[C@@H](CC(C)C)C(=O)N[C@@H](CO)C(=O)N[C@@H](CC(C)C)C(=O)N[C@@H](CC(=O)O)C(=O)N[C@@H](C(=O)N1CCC[C@H]1C(=O)N[C@H](C(=O)N[C@@H](CCCCN)C(=O)N[C@@H](CC(C)C)C(=O)N[C@@H](CCCCNC(=O)COCCOCCNC(=O)COCCOCCNC(=O)CC[C@H](NC(=O)CCCCCCCCCCCCCCC(=O)O)C(=O)O)C(=O)N[C@@H](CCC(N)=O)C(=O)N[C@H](C(=O)N[C@@H](CC(C)C)C(=O)N[C@@H](CC(C)C)C(=O)N[C@@H](CCCCN)C(=O)N[C@@H](CCC(N)=O)C(=O)N[C@@H](CCC(=O)O)C(=O)N[C@@H](CCCNC(=N)N)C(=O)N[C@@H](CCC(N)=O)C(=O)N[C@@H](CCCCN)C(=O)NC(C)(C)C(=O)N[C@@H](CCC(N)=O)C(=O)N[C@@H](CCCNC(=N)N)C(=O)N[C@@H](CCC(=O)O)C(=O)N[C@@H](CCC(N)=O)C(=O)N[C@@H](C)C(=O)N[C@@H](CCC(=O)O)C(=O)N[C@@H](CCCCN)C(=O)N[C@@H](CC(N)=O)C(=O)N[C@@H](CCCCN)C(=O)N[C@@H](CCC(N)=O)C(=O)N[C@H](C(=O)N[C@@H](CC(C)C)C(=O)N[C@@H](C)C(=O)N[C@@H](CCC(N)=O)C(=O)N[C@H](C(N)=O)C(C)C)[C@@H](C)CC)[C@@H](C)CC)[C@@H](C)CC)C(C)C)C(C)C) [peptide of SEQ ID NO: 198] | > 100 nM | 1.4% | 0.49 nM |
| IVLSLD[dV]PIKLK([AEEA-AEEA-γGlu-γGlu-C16 diacid])QILLKQERQK[Aib]QREQAEKNKQILAQV-NH2 (N-terminus assumed; SMILES CC[C@H](C)[C@H](N)C(=O)N[C@H](C(=O)N[C@@H](CC(C)C)C(=O)N[C@@H](CO)C(=O)N[C@@H](CC(C)C)C(=O)N[C@@H](CC(=O)O)C(=O)N[C@@H](C(=O)N1CCC[C@H]1C(=O)N[C@H](C(=O)N[C@@H](CCCCN)C(=O)N[C@@H](CC(C)C)C(=O)N[C@@H](CCCCNC(=O)COCCOCCNC(=O)COCCOCCNC(=O)CC[C@H](NC(=O)CC[C@H](NC(=O)CCCCCCCCCCCCCCC(=O)O)C(=O)O)C(=O)O)C(=O)N[C@@H](CCC(N)=O)C(=O)N[C@H](C(=O)N[C@@H](CC(C)C)C(=O)N[C@@H](CC(C)C)C(=O)N[C@@H](CCCCN)C(=O)N[C@@H](CCC(N)=O)C(=O)N[C@@H](CCC(=O)O)C(=O)N[C@@H](CCCNC(=N)N)C(=O)N[C@@H](CCC(N)=O)C(=O)N[C@@H](CCCCN)C(=O)NC(C)(C)C(=O)N[C@@H](CCC(N)=O)C(=O)N[C@@H](CCCNC(=N)N)C(=O)N[C@@H](CCC(=O)O)C(=O)N[C@@H](CCC(N)=O)C(=O)N[C@@H](C)C(=O)N[C@@H](CCC(=O)O)C(=O)N[C@@H](CCCCN)C(=O)N[C@@H](CC(N)=O)C(=O)N[C@@H](CCCCN)C(=O)N[C@@H](CCC(N)=O)C(=O)N[C@H](C(=O)N[C@@H](CC(C)C)C(=O)N[C@@H](C)C(=O)N[C@@H](CCC(N)=O)C(=O)N[C@H](C(N)=O)C(C)C)[C@@H](C)CC)[C@@H](C)CC)[C@@H](C)CC)C(C)C)C(C)C) [peptide of SEQ ID NO: 199] | > 100 nM | -2.9% | 1.39 nM |
| IVLSLD[dV]PIKLK([AEEA-AEEA-γGlu-C16 diacid])QILLKQERQKK[Aib]RQKAEKNKQILAQV-NH2 (N-terminus assumed; SMILES CC[C@H](C)[C@H](N)C(=O)N[C@H](C(=O)N[C@@H](CC(C)C)C(=O)N[C@@H](CO)C(=O)N[C@@H](CC(C)C)C(=O)N[C@@H](CC(=O)O)C(=O)N[C@@H](C(=O)N1CCC[C@H]1C(=O)N[C@H](C(=O)N[C@@H](CCCCN)C(=O)N[C@@H](CC(C)C)C(=O)N[C@@H](CCCCNC(=O)COCCOCCNC(=O)COCCOCCNC(=O)CC[C@H](NC(=O)CCCCCCCCCCCCCCC(=O)O)C(=O)O)C(=O)N[C@@H](CCC(N)=O)C(=O)N[C@H](C(=O)N[C@@H](CC(C)C)C(=O)N[C@@H](CC(C)C)C(=O)N[C@@H](CCCCN)C(=O)N[C@@H](CCC(N)=O)C(=O)N[C@@H](CCC(=O)O)C(=O)N[C@@H](CCCNC(=N)N)C(=O)N[C@@H](CCC(N)=O)C(=O)N[C@@H](CCCCN)C(=O)N[C@@H](CCCCN)C(=O)NC(C)(C)C(=O)N[C@@H](CCCNC(=N)N)C(=O)N[C@@H](CCC(N)=O)C(=O)N[C@@H](CCCCN)C(=O)N[C@@H](C)C(=O)N[C@@H](CCC(=O)O)C(=O)N[C@@H](CCCCN)C(=O)N[C@@H](CC(N)=O)C(=O)N[C@@H](CCCCN)C(=O)N[C@@H](CCC(N)=O)C(=O)N[C@H](C(=O)N[C@@H](CC(C)C)C(=O)N[C@@H](C)C(=O)N[C@@H](CCC(N)=O)C(=O)N[C@H](C(N)=O)C(C)C)[C@@H](C)CC)[C@@H](C)CC)[C@@H](C)CC)C(C)C)C(C)C) [peptide of SEQ ID NO: 200] | > 100 nM | 1.9% | 8.7 nM |
| IVLSLD[dV]PIGLK([AEEA-AEEA-γGlu-γGlu-Palmitoyl])QILLKQERQKK[Aib]REQAETNKQILAQV-NH2 (N-terminus assumed; SMILES CCCCCCCCCCCCCCCC(=O)N[C@@H](CCC(=O)N[C@@H](CCC(=O)NCCOCCOCC(=O)NCCOCCOCC(=O)NCCCC[C@H](NC(=O)[C@H](CC(C)C)NC(=O)CNC(=O)[C@@H](NC(=O)[C@@H]1CCCN1C(=O)[C@H](NC(=O)[C@H](CC(=O)O)NC(=O)[C@H](CC(C)C)NC(=O)[C@H](CO)NC(=O)[C@H](CC(C)C)NC(=O)[C@@H](NC(=O)[C@@H](N)[C@@H](C)CC)C(C)C)C(C)C)[C@@H](C)CC)C(=O)N[C@@H](CCC(N)=O)C(=O)N[C@H](C(=O)N[C@@H](CC(C)C)C(=O)N[C@@H](CC(C)C)C(=O)N[C@@H](CCCCN)C(=O)N[C@@H](CCC(N)=O)C(=O)N[C@@H](CCC(=O)O)C(=O)N[C@@H](CCCNC(=N)N)C(=O)N[C@@H](CCC(N)=O)C(=O)N[C@@H](CCCCN)C(=O)N[C@@H](CCCCN)C(=O)NC(C)(C)C(=O)N[C@@H](CCCNC(=N)N)C(=O)N[C@@H](CCC(=O)O)C(=O)N[C@@H](CCC(N)=O)C(=O)N[C@@H](C)C(=O)N[C@@H](CCC(=O)O)C(=O)N[C@H](C(=O)N[C@@H](CC(N)=O)C(=O)N[C@@H](CCCCN)C(=O)N[C@@H](CCC(N)=O)C(=O)N[C@H](C(=O)N[C@@H](CC(C)C)C(=O)N[C@@H](C)C(=O)N[C@@H](CCC(N)=O)C(=O)N[C@H](C(N)=O)C(C)C)[C@@H](C)CC)[C@@H](C)O)[C@@H](C)CC)C(=O)O)C(=O)O) [peptide of SEQ ID NO: 217] |  |  | 0.16 nM |
